Measurements published in patent US20210154165.

Target: ARID1A (endogenous, ARID1A-wildtype cancer cell lysate) (UniProt O14497)
UniProt O14497, sequence (O14497 whole entry, looked up): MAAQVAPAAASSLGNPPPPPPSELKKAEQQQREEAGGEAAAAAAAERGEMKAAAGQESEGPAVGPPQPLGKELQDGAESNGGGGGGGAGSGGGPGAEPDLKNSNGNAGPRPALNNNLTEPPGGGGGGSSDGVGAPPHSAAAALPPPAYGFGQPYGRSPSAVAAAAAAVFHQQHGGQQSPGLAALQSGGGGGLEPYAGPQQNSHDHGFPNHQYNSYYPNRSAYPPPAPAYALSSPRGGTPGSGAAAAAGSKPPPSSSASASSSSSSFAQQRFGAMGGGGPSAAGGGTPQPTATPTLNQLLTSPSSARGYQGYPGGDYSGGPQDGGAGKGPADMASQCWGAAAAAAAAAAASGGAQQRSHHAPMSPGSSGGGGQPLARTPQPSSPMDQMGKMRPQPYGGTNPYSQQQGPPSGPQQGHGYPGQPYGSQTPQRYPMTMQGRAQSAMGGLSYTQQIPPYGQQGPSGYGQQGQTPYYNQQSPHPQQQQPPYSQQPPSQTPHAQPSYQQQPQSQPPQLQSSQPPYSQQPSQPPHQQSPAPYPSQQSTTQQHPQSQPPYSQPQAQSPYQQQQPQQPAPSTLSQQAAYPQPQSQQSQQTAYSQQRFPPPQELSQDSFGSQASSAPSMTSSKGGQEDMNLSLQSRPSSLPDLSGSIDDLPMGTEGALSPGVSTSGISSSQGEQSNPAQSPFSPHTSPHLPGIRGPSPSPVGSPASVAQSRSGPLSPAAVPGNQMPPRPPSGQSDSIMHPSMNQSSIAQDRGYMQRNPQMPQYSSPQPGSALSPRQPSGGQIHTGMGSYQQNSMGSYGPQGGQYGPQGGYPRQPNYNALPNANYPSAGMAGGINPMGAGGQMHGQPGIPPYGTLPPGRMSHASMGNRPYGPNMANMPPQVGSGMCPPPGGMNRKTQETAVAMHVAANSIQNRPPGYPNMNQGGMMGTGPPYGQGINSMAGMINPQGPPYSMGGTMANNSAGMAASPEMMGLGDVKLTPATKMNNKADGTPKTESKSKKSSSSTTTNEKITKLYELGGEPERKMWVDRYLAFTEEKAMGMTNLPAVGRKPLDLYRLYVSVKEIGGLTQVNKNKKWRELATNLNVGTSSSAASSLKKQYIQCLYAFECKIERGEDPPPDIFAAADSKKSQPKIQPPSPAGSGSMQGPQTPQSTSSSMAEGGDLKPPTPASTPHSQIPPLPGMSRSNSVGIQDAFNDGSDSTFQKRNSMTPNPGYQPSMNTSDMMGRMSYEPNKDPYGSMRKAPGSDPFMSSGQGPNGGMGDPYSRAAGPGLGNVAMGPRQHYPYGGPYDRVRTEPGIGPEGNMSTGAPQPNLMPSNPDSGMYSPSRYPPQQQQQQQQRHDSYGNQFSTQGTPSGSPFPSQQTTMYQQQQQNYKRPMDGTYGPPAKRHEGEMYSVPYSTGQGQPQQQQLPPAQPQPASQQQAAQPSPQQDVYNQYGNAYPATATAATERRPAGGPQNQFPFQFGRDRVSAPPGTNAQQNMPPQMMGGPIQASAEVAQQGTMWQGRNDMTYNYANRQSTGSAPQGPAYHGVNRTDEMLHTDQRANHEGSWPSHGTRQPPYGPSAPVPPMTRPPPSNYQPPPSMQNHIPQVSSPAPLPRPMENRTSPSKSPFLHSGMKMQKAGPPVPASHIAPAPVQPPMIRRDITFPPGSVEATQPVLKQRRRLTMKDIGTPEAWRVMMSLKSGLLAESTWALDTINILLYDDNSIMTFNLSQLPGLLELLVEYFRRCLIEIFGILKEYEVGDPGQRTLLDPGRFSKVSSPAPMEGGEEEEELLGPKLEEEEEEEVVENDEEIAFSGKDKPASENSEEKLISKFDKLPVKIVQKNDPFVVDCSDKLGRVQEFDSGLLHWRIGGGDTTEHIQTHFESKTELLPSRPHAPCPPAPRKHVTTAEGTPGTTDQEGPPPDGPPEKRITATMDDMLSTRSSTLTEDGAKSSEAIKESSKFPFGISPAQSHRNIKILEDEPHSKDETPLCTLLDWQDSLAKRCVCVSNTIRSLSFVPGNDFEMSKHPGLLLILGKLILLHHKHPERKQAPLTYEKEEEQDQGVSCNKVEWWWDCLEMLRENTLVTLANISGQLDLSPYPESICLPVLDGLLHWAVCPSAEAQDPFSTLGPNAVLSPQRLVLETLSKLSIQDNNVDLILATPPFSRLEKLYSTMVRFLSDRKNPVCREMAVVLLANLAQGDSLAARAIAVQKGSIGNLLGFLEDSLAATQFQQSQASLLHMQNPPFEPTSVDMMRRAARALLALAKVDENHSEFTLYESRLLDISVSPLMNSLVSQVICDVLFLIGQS

For “Carbamoyl-phosphate synthetase 2, Aspartate transcarbamoylase, and Dihydroorotase (CAD) (endogenous)”, the “total CAD and phosphorylated CAD (Serine-1859) protein levels by immunoblot after ARID1A knockdown or restoration” value was “wildtype ARID1A functions as a negative regulator of CAD, wherein ARID1A deficiency results in an increase in total and phosphorylated CAD”.
